Key:
human red blood cells = assay: Hemolysis assay, hemoglobin released from red blood cells; type: cell-based; settings: hemoglobin in supernatant, spectrophotometric
α-chymotrypsin = α-chymotrypsin (Bos taurus, UniProt P00766); assay: Proteinase assay, α-chymotrypsin degradation by PAGE; type: in vitro ADME; settings: bands of intact MEL diminished significantly after 15 min
Dynamic light scattering = type: physicochemical; settings: DLS intensity average, scattering angle 90°, room temperature, Nanopure water
SKOV-3 cells = assay: Cell viability after 48 h treatment; type: cell-based, human
NCI-H358 cells [1] = assay: Cell viability after 48 h treatment; type: cell-based, human
human plasma = assay: Activated partial thromboplastin time; settings: 20 μM MEL concentration
[2] = Innate immune response, cytokine ELISA; type: in vivo; settings: C57BL/6 mice, 3 mg/kg MEL, blood 4 h after injection, n = 5
NCI-H358 xenografts [3] = assay: Biodistribution by fluorescence imaging in NCI-H358 xenograft mice; type: in vivo; settings: i.v. 3 mg/kg MEL, 24 h post-injection, n = 2
[4] = Plasma pharmacokinetics after tail vein injection; type: in vivo; settings: C57BL/6 mice, i.v. tail vein, Cy5.5-labeled, two-compartment model, n = 5
NCI-H358 cells [5] = assay: Cellular uptake kinetics by flow cytometry; type: cell-based, human; settings: 1 μM of MEL for 1–4 h
SKOV3 cells = assay: Cellular uptake kinetics by flow cytometry; type: cell-based, human; settings: 1 μM of MEL for 1–4 h
ζ potential measurement = type: physicochemical; settings: in Nanopure water
NCI-H358 xenografts [6] = assay: Tumor growth inhibition in NCI-H358 xenograft; type: in vivo, athymic nude mice; settings: 3 mg/kg MEL-basis i.v. every 3 days, 30 days, n = 4; vehicle 453%

| Substance | hemolysis at 1 μM (human red blood cells; 1 μM) | α-chymotrypsin digestion (in words) (α-chymotrypsin) | Dh (hydrodynamic diameter, DLS) (Dynamic light scattering) | cytotoxicity (cell viability, in words) (SKOV-3 cells) | cytotoxicity (cell viability, in words) (NCI-H358 cells [1]) | effect on coagulation (clotting) time, aPTT (human plasma) | interleukin-6 (IL-6) activation [2] | hemolysis of RBCs at 60 μM (human red blood cells; 60 μM) | tumor vs. liver ratio (relative fluorescent intensities) (NCI-H358 xenografts [3]) | tumor vs. spleen ratio (relative fluorescent intensities) (NCI-H358 xenografts [3]) | elimination half-life (t1/2β) [4] | cellular uptake (in words) (NCI-H358 cells [5]) | cellular uptake (in words) (SKOV3 cells) | ζ potential (ζ potential measurement) | tumor growth by day 30 (% of original size) (NCI-H358 xenografts [6]) |
| --- | --- | --- | --- | --- | --- | --- | --- | --- | --- | --- | --- | --- | --- | --- | --- |
| YPEG-MEL: conjugate of low PEG density: MEL on Y-shaped PEG, Mn 40 kDa, each arm 20 kDa | 16% | digested rapidly | 21.0 ± 0.5 nm | reduced but still apparent cytotoxicity | reduced but still apparent cytotoxicity | – | – | – | – | – | – | – | – | – | – |
| pacMELNClv: non-cleavable conjugate of MEL and bottlebrush PEG, negative control | – | – | – | no evident cytotoxicity | no evident cytotoxicity | – | – | – | – | – | – | – | – | – | – |
| melittin | – | digested rapidly | – | – | – | doubling the coagulation times | induces activation | near-complete hemolysis | 0.61 | 0.55 | 43 min | fast and accelerating process | fast and accelerating process | ~ 8 mV | did not lead to statistically meaningful repression of tumor growth |

Reference: PMC8784393 (ACS applied materials & interfaces, 2021)
